The record followed here is paper PMC3321182 (The EMBO Journal, 2012).

The target of this assay is T1, N-terminal autoproteolysis product of the crystallized HormR-GAIN fragment of rat CL1 (CIRL/Latrophilin 1) (rat, UniProt O88917 460-837).
T1 sequence (looked up): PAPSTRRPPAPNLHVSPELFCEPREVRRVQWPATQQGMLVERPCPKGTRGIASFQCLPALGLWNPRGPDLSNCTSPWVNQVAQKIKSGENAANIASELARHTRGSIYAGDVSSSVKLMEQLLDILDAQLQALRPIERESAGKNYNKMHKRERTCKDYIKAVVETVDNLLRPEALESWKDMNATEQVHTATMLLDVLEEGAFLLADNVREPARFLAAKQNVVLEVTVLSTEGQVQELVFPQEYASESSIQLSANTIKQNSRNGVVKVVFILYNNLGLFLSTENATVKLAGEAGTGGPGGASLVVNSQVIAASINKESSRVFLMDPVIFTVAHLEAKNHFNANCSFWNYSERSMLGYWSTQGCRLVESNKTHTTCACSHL
Kind of assay: crystal structure.

B1: cleaved β-strand of the crystallized HormR-GAIN fragment of rat CL1 (C-terminal autoproteolysis product) (peptide, UniProt O88917 838-849, looked up)
chain: TNFAVLMAHREI
In the case of B1, the binding result was “binds”.
